Measurements reported in PMC2776356 (2009).

B1: wild-type GST-Nkd1 [human] / in vitro translated ^35[S]-labelled Dvl2 [modified: 35S-methionine label; 35S-methionine label] [not stated (human or mouse cDNA cloned)] (parent complex)
chain 1: MGKLHSKPAAVCKRRESPEGDSFAVSAAWARKGIEEWIGRQRCPGGVSGPRQLRLAGTIGRSTRELVGDVLRDTLSEEEEDDFRLEVALPPEKTDGLGSGDEKKMERVSEPCPGSKKQLKFEELQCDVSMEEDSRQEWTFTLYDFDNNGKVTREDITSLLHTIYEVVDSSVNHSPTSSKMLRVKLTVAPDGSQSKRSVLVNQADLQSARPRAETKPTEDLRSWEKKQRAPLRFQGDSRLEQSGCYHHCVDENIERRNHYLDLAGIENYTSQFGPGSPSVAQKSELPPRTSNPTRSRSHEPEAIHIPHRKPQGVDPASFHFLDTPIAKVSELQQRLRGTQDGSKHFVRSPKAQGKSVGVGHVARGARNKPPLGPAIPAVSPSAHLAASPALLPSLAPLGHKKHKHRAKESQQGCRGLQAPLASGGPVLGREHLRELPALVVYESQAGQPVQRHEHHHHHEHHHHYHHFYQT
chain 2: MAGSSTGGGGVGETKVIYHLDEEETPYLVKIPVPAERITLGDFKSVLQRPAGAKYFFKSMDQDFGVVKEEISDDNARLPCFNGRVVSWLVSSDNPQPEMAPPVHEPRAELAPPAPPLPPLPPERTSGIGDSRPPSFHPNVSSSHENLEPETETESVVSLRRERPRRRDSSEHGAGGHRTGGPSRLERHLAGYESSSTLMTSELESTSLGDSDEEDTMSRFSSSTEQSSASRLLKRHRRRRKQRPPRLERTSSFSSVTDSTMSLNIITVTLNMEKYNFLGISIVGQSNERGDGGIYIGSIMKGGAVAADGRIEPGDMLLQVNDMNFENMSNDDAVRVLRDIVHKPGPIVLTVAKCWDPSPQAYFTLPRNEPIQPIDPAAWVSHSAALTGTFPAYPGSSSMSTITSGSSLPDGCEGRGLSVHTDMASVTKAMAAPESGLEVRDRMWLKITIPNAFLGSDVVDWLYHHVEGFPERREARKYASGLLKAGLIRHTVNKITFSEQCYYVFGDLSGGCESYLVNLSLNDNDGSSGASDQDTLAPLPGATPWPLLPTFSYQYPAPHPYSPQPPPYHELSSYTYGGGSASSQHSEGSRSSGSTRSDGGAGRTGRPEERAPESKSGSGSESEPSSRGGSLRRGGEASGTSDGGPPPSRGSTGGAPNLRAHPGLHPYGPPPGMALPYNPMMVVMMPPPPPPVPPAVQPPGAPPVRDLGSVPPELTASRQSFHMAMGNPSEFFVDVM
B2: wild-type GST-Nkd1 [human] / in vitro translated ^35[S]-labelled Dvl1 [modified: 35S-methionine label; 35S-methionine label] [human] (parent complex)
chain 1: B1 chain 1
chain 2: MAETKIIYHMDEEETPYLVKLPVAPERVTLADFKNVLSNRPVHAYKFFFKSMDQDFGVVKEEIFDDNAKLPCFNGRVVSWLVLAEGAHSDAGSQGTDSHTDLPPPLERTGGIGDSRPPSFHPNVASSRDGMDNETGTESMVSHRRERARRRNREEAARTNGHPRGDRRRDVGLPPDSASTALSSELESSSFVDSDEDGSTSRLSSSTEQSTSSRLIRKHKRRRRKQRLRQADRASSFSSITDSTMSLNIVTVTLNMERHHFLGISIVGQSNDRGDGGIYIGSIMKGGAVAADGRIEPGDMLLQVNDVNFENMSNDDAVRVLREIVSQTGPISLTVAKCWDPTPRSYFTVPRADPVRPIDPAAWLSHTAALTGALPRYGTSPCSSAVTRTSSSSLTSSVPGAPQLEEAPLTVKSDMSAVVRVMQLPDSGLEIRDRMWLKITIANAVIGADVVDWLYTHVEGFKERREARKYASSLLKHGFLRHTVNKITFSEQCYYVFGDLCSNLATLNLNSGSSGTSDQDTLAPLPHPAAPWPLGQGYPYQYPGPPPCFPPAYQDPGFSYGSGSTGSQQSEGSKSSGSTRSSRRAPGREKERRAAGAGGSGSESDHTAPSGVGSSWRERPAGQLSRGSSPRSQASATAPGLPPPHPTTKAYTVVGGPPGGPPVRELAAVPPELTGSRQSFQKAMGNPCEFFVDIM
B3: wild-type GST-Nkd1 [human] / in vitro translated ^35[S]-labelled Dvl3 [modified: 35S-methionine label; 35S-methionine label] [human] (parent complex)
chain 1: B1 chain 1
chain 2: MGETKIIYHLDGQETPYLVKLPLPAERVTLADFKGVLQRPSYKFFFKSMDDDFGVVKEEISDDNAKLPCFNGRVVSWLVSAEGSHPDPAPFCADNPSELPPPMERTGGIGDSRPPSFHPHAGGGSQENLDNDTETDSLVSAQRERPRRRDGPEHATRLNGTAKGERRREPGGYDSSSTLMSSELETTSFFDSDEDDSTSRFSSSTEQSSASRLMRRHKRRRRKQKVSRIERSSSFSSITDSTMSLNIITVTLNMEKYNFLGISIVGQSNERGDGGIYIGSIMKGGAVAADGRIEPGDMLLQVNEINFENMSNDDAVRVLREIVHKPGPITLTVAKCWDPSPRGCFTLPRSEPIRPIDPAAWVSHTAAMTGTFPAYGMSPSLSTITSTSSSITSSIPDTERLDDFHLSIHSDMAAIVKAMASPESGLEVRDRMWLKITIPNAFIGSDVVDWLYHNVEGFTDRREARKYASNLLKAGFIRHTVNKITFSEQCYYIFGDLCGNMANLSLHDHDGSSGASDQDTLAPLPHPGAAPWPMAFPYQYPPPPHPYNPHPGFPELGYSYGGGSASSQHSEGSRSSGSNRSGSDRRKEKDPKAGDSKSGGSGSESDHTTRSSLRGPRERAPSERSGPAASEHSHRSHHSLASSLRSHHTHPSYGPPGVPPLYGPPMLMMPPPPAAMGPPGAPPGRDLASVPPELTASRQSFRMAMGNPSEFFVDVM

Variants of: B1
Assay: GST-pulldown; parent: 1; read off a plot

| ratio to parent | Variant |
| --- | --- |
| ~0.14 | chain 1 R288H |

Variants of: B1
Assay: yeast two-hybrid (quantitative ONPG assay); parent: 4.7; read off a plot

| response | Variant |
| --- | --- |
| ~2.5 ONPG units | chain 1 R288H |

Variants of: B2
Assay: GST-pulldown; parent: 1; read off a plot

| ratio to parent | Variant |
| --- | --- |
| ~0.19 | chain 1 R288H |

Variants of: B2
Assay: yeast two-hybrid (quantitative ONPG assay); parent: 6.2; read off a plot

| response | Variant |
| --- | --- |
| ~2.4 ONPG units | chain 1 R288H |

Variants of: B3
Assay: GST-pulldown; parent: 1; read off a plot

| ratio to parent | Variant |
| --- | --- |
| ~0.7 | chain 1 R288H |

Variants of: B3
Assay: yeast two-hybrid (quantitative ONPG assay); parent: 4; read off a plot

| response | Variant |
| --- | --- |
| ~3 ONPG units | chain 1 R288H |
